What was measured:
Test in all cases: pull-down binding Z-score (relative to library population); higher = stronger binding
Conditions in all cases: RNA library: Library-2
[1] = test system: TO-3-N3 (biotin conjugate)
Outline: (§1)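 Binding is given as a Z-score against the library mean and standard deviation, calculated after removing the beads-only signal and averaging barcoded replicate probes without their highest and lowest values. Cy5- or Cy3-end-labelled RNA library (1 μg) was heat-folded in phosphate/NaCl/KCl buffer and incubated 60 min at 25 °C with streptavidin beads bearing 100 pmol of biotin-conjugated small molecule. After three washes, RNA eluted in hot SDS was hybridised to a DNA barcode microarray for 20 h at 55.5 °C.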

[2] = test system: TO-3-N3-2 (biotin conjugate)
Outline: as §1

[3] = test system: TO-N3-2 (biotin conjugate)
Outline: as §1

TO-N3 (biotin conjugate) = test system: TO-N3 (biotin conjugate)
Outline: as §1

Row | Sequence | pull-down binding Z-score [1] | pull-down binding Z-score [2] | pull-down binding Z-score [3] | pull-down binding Z-score (TO-N3 (biotin conjugate))
1 | AUAAACCACCCAUUAGUUUUCCAUUGUGUGCUAAUGGACAAGUUUUUGGUUUAU | -0.734 | -0.594 | -1.1 | -1.34
2 | ACCUUUAAUUGAAUUGUGCGUGGAUGAGGCUGGUUCUAAAUCACCCAUUCAGUACAUCGAUAUCGGU [SHAPE_invivo_SARS-CoV-2_Motif_532] | -0.881 | -0.862 | -0.962 | -1.07
3 | GCACAUAUAUCUACUAUUGGUGUUUGUUCUAUGACUGACAUAGCCAAGAAACCAACUGAAACGAUUUGUGC | -0.793 | -0.32 | 0.00798 | -0.457
4 | UGAUGUCACAGAUGUGACUCA | -0.773 | -0.677 | -0.946 | -1.09
5 | GCUUUGUCCAAAAUGCCCUUAAUGGGAACGGGGAUCCAAAUAACAUGGACAAAGC [IAV_invivo_M1_M2_7_Motif_6+IAV_invivo_M1_M2_7_Motif_6] | 0.0624 | 0.353 | -0.236 | -0.155
6 | UUAAAAUAUGACUUCACGGAAGAGAGGUUAAAACUCUUUGACCGUUAUUUUAA [DMSMaPseq_invitro_SARS-CoV-2_Motif_258] | 0.0656 | 0.159 | -0.898 | -0.184
7 | AUGAGAAGUGCUCUGCCUAUACAGUUGAACUCGGUACAGAAGUAAAUGAGUUCGCCUGUGUUGUGGCAGAUGCUGUCAU [SHAPE_invitro_SARS-CoV-2_Motif_53] | -0.626 | -0.278 | 2.07 | 0.461
8 | CAUGCUGAUUUUGACACAUGGUUUAGCCAGCGUG [DMSMaPseq_invitro_SARS-CoV-2_Motif_160] | -0.604 | -0.409 | -0.276 | -0.64
9 | GCAUGAUGUUUCAUCUGC | 1.18 | 0.0512 | -0.496 | 0.951
10 | GGAUUUCUGGACAUUUGGACAUAUAAUGCAGAAUUGUUAGUUCUACUGGAAAAUGAAAGGACUCUGGAUUUCC [IAV_invivo_HA_4_Motif_17+IAV_invivo_HA_4_Motif_17] | -0.659 | 0.4 | 0.395 | -0.198
11 | CAUUUGUAGUUUCAACUGGAUACCACUUCAGAGAGCUAGGUGUUGUACAUAAUCAGGAUGUAAACUUACAUAGCUCUAGACUUAGUUUUAAGGAAUUACUUGUG | -0.927 | -0.292 | 0.127 | -0.109
12 | UGUUUUCUACAAAGAAAACA [SHAPE_invivo_SARS-CoV-2_Motif_122] | -0.462 | -0.34 | -1.85 | -0.865
13 | UAGUAGCUGGUGGUAUUGUAGCUAUCGUAGUAACAUGCCUUGCCUACUA [DMSMaPseq_invitro_SARS-CoV-2_Motif_172] | -0.611 | -0.39 | -1.01 | -0.871
14 | UAGACAAUUCUAGUCUUACUAUUAAGAAACCUAAUGAAUUAUCUA [SHAPE_invivo_SARS-CoV-2_Motif_135] | -1.02 | -0.287 | -1.41 | -1.27
15 | CAUGCAAAUUACAUAUUUUGGAGGAAUACAAAUCCAAUUCAGUUGUCUUCCUAUUCUUUAUUUGACAUG | -0.857 | -0.152 | -0.803 | -1.08
16 | UGUACAUCUUCUUUGCAUCAUUUUAUUAUGUAUGGAAAAGUUAUGUGCA [SHAPE_invitro_SARS-CoV-2_Motif_147] | -0.791 | -0.347 | -0.553 | -0.813
17 | GAAGUUACAACAACUCUGGAAGAAACUAAGUUCCUCACAGAAAACUUGUUACUUU [DMSMaPseq_invitro_SARS-CoV-2_Motif_72] | -0.508 | -0.321 | 0.97 | -0.304

Row | Sequence | pull-down binding Z-score [1] | pull-down binding Z-score [2] | pull-down binding Z-score [3] | pull-down binding Z-score (TO-N3 (biotin conjugate))
18 | GAGUAUUAGGUUUGAAAACCCUUGCUACUC [SHAPE_invivo_SARS-CoV-2_Motif_136] | -0.732 | -0.359 | -0.731 | -0.966
19 | CAGGACACGAGUAACUCGUCUAUCUUCUG [SARS-CoV-2-Conserved-Structured-36_Interval-120-237_Motif_2] | 0.225 | -0.0048 | 0.379 | 0.324
20 | GCAAGUUGAAUCUGAUGAUUACAUAGCUACUAAUGGACCACUUAAAGUGGGUGGUAGUUGUGUUUUAAGCGGACACAAUCUUGC | -0.696 | -0.436 | -0.558 | -0.805
21 | ACAAGGCUAUUGAUGGUGGUGUCACUCGUGACAUAGCAUCUACAGAUACUUGU [SHAPE_invitro_SARS-CoV-2_Motif_170] | -0.355 | -0.287 | -0.052 | -0.449
22 | AACUUUAAUGUU [SHAPE_invitro_SARS-CoV-2_Motif_263] | 0.212 | -0.765 | -1.33 | 0.00196
23 | UAGUGUUACCACAGAAAUUCUACCAGUGUCUAUGACCAAGACAUCAGUAGAUUGUACAAUGUACAUUUGUGGUGAUUCAACUG [DMSMaPseq_invitro_SARS-CoV-2_Multi_72_ComplexLevel_1] | 0.214 | 0.267 | -0.417 | 0.228
24 | GGGAGUCUUCGAGCUCUC [IAV_invivo_NP_5_Motif_24+IAV_invivo_NP_5_Motif_24] | -0.194 | -0.548 | -0.555 | -0.358
25 | AUGCUUGGAACAGGAAGAGAAUCAGCAACUGUGUUGCUGAUUAUUCUGUCCUAUAUAAUUCCGCAU [DMSMaPseq_invitro_SARS-CoV-2_Motif_399] | -0.314 | -0.327 | -0.139 | -0.459
26 | GGACAAUUCACCUAAUUUAGCAUGGCCUCUUAUUGUAACAGCUUUAAGGGCCAAUUCUGCUGUCAAAUUACAGAAUAAUGAGCUUAGUCC | -0.496 | -0.176 | -0.485 | -0.563
27 | GUGGAUGGUUAUGUUCAC | 0.0943 | -0.266 | -0.628 | -0.236
28 | GGUUAUAAGAAACC | -0.083 | -0.849 | -0.964 | -0.351
29 | CGGAUUCUGAAAGAAGAAUCCG [IAV_invivo_NS1_NEP_8_Motif_5+IAV_invivo_NS1_NEP_8_Motif_5] | 0.432 | -0.255 | -0.902 | 0.0717
30 | AGGUCCAGACAUGUUCCUCGGAACUUGUCGGCGUUGUCCU | -0.757 | -0.441 | 0.332 | -0.838
31 | CCACGCACAUUGCUAACUAAGGGCACACUAGAACCAGAAUAUUUCAAUUCAGUGUGUAGACUUAUGAAAACUAUAGGUCCAGACAUGUUCCUCGGAACUUGUCGG | -0.478 | -0.0669 | 0.139 | -0.189
32 | GGCUUCAUCAAACAAUAUGGUGAUUGCC | -0.151 | -0.331 | -1.01 | -0.484
33 | UGACGAUGCUGUUGUGUGUUUCAAUAGCACUUAUGCAUCUCA [SHAPE_invitro_SARS-CoV-2_Motif_289] | 1.24 | -0.0833 | -0.71 | 1.01
